# Experimental data: patent publication US20160367623A1, “AGONISTS OF GUANYLATE CYCLASE USEFUL FOR THE TREATMENT OF GASTROINTESTINAL DISORDERS, INFLAMMATION, CANCER AND OTHER DISORDERS” (priority 2015, published 2016)
# Bridge positions count the residues as written; N and C are the ends. Ends that are not written are not given here.
# Tested on: patients with chronic idiopathic constipation (CIC)
# Assay: Second phase 3 CIC trial: treatment emergent adverse events, safety
substance,measurement,setting,value
"Asn^1-Asp^2-Glu^3-Cys^4-Glu^5-Leu^6-Cys^7-Val^8-Asn^9-Val^10-Ala^11-Cys^12-Thr^13-Gly^14-Cys^15-Leu^16 (NDECELCVNVACTGCL; disulfide 4-12, 7-15) [Plecanatide]","Infections and infestations, Severe: patients N",3 mg,0
same,Infections and infestations: events E,3 mg,38
same,Infections and infestations: patients %,3 mg,(7.3) %
same,Infections and infestations: patients N,3 mg,34
same,"Influenza, Mild: events E",3 mg,2
same,"Influenza, Mild: patients %",3 mg,(0.4) %
same,"Influenza, Mild: patients N",3 mg,2
same,"Influenza, Moderate: events E",3 mg,0
same,"Influenza, Moderate: patients N",3 mg,0
same,"Influenza, Severe: events E",3 mg,0
same,"Influenza, Severe: patients N",3 mg,0
same,Influenza: events E,3 mg,2
same,Influenza: patients %,3 mg,(0.4) %
same,Influenza: patients N,3 mg,2
same,"Injury, poisoning and procedural complications, Mild: events E",3 mg,6
same,"Injury, poisoning and procedural complications, Mild: patients %",3 mg,(0.9) %
same,"Injury, poisoning and procedural complications, Mild: patients N",3 mg,4
same,"Ligament sprain, Mild: events E",3 mg,1
same,"Ligament sprain, Mild: patients %",3 mg,(0.2) %
same,"Ligament sprain, Mild: patients N",3 mg,1
same,"Ligament sprain, Moderate: events E",3 mg,1
same,"Ligament sprain, Moderate: patients %",3 mg,(0.2) %
same,"Ligament sprain, Moderate: patients N",3 mg,1
same,"Ligament sprain, Severe: events E",3 mg,0
same,"Ligament sprain, Severe: patients N",3 mg,0
same,Ligament sprain: events E,3 mg,2
same,Ligament sprain: patients %,3 mg,(0.4) %
same,Ligament sprain: patients N,3 mg,2
same,"Skeletal injury, Mild: events E",3 mg,0
same,"Skeletal injury, Mild: patients N",3 mg,0
same,"Skeletal injury, Moderate: events E",3 mg,0
same,"Skeletal injury, Moderate: patients N",3 mg,0
same,"Skeletal injury, Severe: events E",3 mg,0
same,"Skeletal injury, Severe: patients N",3 mg,0
same,Skeletal injury: events E,3 mg,0
same,Skeletal injury: patients N,3 mg,0
same,Ileus: events (E),3 mg (N = 467),0
same,Infections and infestations (SOC): events E,3 mg (N = 467),38
same,Infections and infestations (SOC): patients %,3 mg (N = 467),(7.3) %
same,Infections and infestations (SOC): patients N,3 mg (N = 467),34
same,"Influenza like illness, Mild: events (E)",3 mg (N = 467),0
same,"Influenza like illness, Moderate: events (E)",3 mg (N = 467),0
same,"Influenza like illness, Severe: events (E)",3 mg (N = 467),0
same,Influenza like illness: events (E),3 mg (N = 467),0
same,Influenza like illness: events E,3 mg (N = 467),0
same,Influenza like illness: patients N,3 mg (N = 467),0
same,Influenza: events E,3 mg (N = 467),2
same,Influenza: patients %,3 mg (N = 467),(0.4) %
same,Influenza: patients N,3 mg (N = 467),2
same,"Injury, poisoning and procedural complications (SOC): events E",3 mg (N = 467),10
same,"Nausea, Mild: events (E)",3 mg (N = 467),4
same,"Nausea, Mild: patients (%)",3 mg (N = 467),(0.9) %
same,"Nausea, Moderate: events (E)",3 mg (N = 467),0
same,"SAE Musculoskeletal and connective tissue disorders, E events",3 mg (N = 467),0
same,"SAE Musculoskeletal and connective tissue disorders, N patients",3 mg (N = 467),0
same,"SAE Musculoskeletal and connective tissue disorders, No Reasonable Possibility, E events",3 mg (N = 467),0
same,"SAE Musculoskeletal and connective tissue disorders, No Reasonable Possibility, N patients",3 mg (N = 467),0
same,"SAE Musculoskeletal and connective tissue disorders, Reasonable Possibility, E events",3 mg (N = 467),0
same,"SAE Musculoskeletal and connective tissue disorders, Reasonable Possibility, N patients",3 mg (N = 467),0
same,"Infections and infestations, Severe: patients N",6 mg,1
same,Infections and infestations: events E,6 mg,51
same,Infections and infestations: patients %,6 mg,(9.2) %
same,Infections and infestations: patients N,6 mg,43
same,"Influenza, Mild: events E",6 mg,4
same,"Influenza, Mild: patients %",6 mg,(0.9) %
same,"Influenza, Mild: patients N",6 mg,4
same,"Influenza, Moderate: events E",6 mg,3
same,"Influenza, Moderate: patients %",6 mg,(0.6) %
same,"Influenza, Moderate: patients N",6 mg,3
same,"Influenza, Severe: events E",6 mg,0
same,"Influenza, Severe: patients N",6 mg,0
same,Influenza: events E,6 mg,7
same,Influenza: patients %,6 mg,(1.5) %
same,Influenza: patients N,6 mg,7
same,"Injury, poisoning and procedural complications, Mild: events E",6 mg,4
same,"Injury, poisoning and procedural complications, Mild: patients %",6 mg,(0.9) %
same,"Injury, poisoning and procedural complications, Mild: patients N",6 mg,4
same,"Ligament sprain, Mild: events E",6 mg,0
same,"Ligament sprain, Mild: patients N",6 mg,0
same,"Ligament sprain, Moderate: events E",6 mg,0
same,"Ligament sprain, Moderate: patients N",6 mg,0
same,"Ligament sprain, Severe: events E",6 mg,0
same,"Ligament sprain, Severe: patients N",6 mg,0
same,Ligament sprain: events E,6 mg,0
same,Ligament sprain: patients N,6 mg,0
same,"Skeletal injury, Mild: events E",6 mg,0
same,"Skeletal injury, Mild: patients N",6 mg,0
same,"Skeletal injury, Moderate: events E",6 mg,0
same,"Skeletal injury, Moderate: patients N",6 mg,0
same,"Skeletal injury, Severe: events E",6 mg,1
same,"Skeletal injury, Severe: patients %",6 mg,(0.2) %
same,"Skeletal injury, Severe: patients N",6 mg,1
same,Skeletal injury: events E,6 mg,1
same,Skeletal injury: patients %,6 mg,(0.2) %
same,Skeletal injury: patients N,6 mg,1
same,Ileus: events (E),6 mg (N = 469),0
same,Infections and infestations (SOC): events E,6 mg (N = 469),51
same,Infections and infestations (SOC): patients %,6 mg (N = 469),(9.2) %
same,Infections and infestations (SOC): patients N,6 mg (N = 469),43
same,"Influenza like illness, Mild: events (E)",6 mg (N = 469),1
same,"Influenza like illness, Mild: patients (%)",6 mg (N = 469),(0.2) %
same,"Influenza like illness, Moderate: events (E)",6 mg (N = 469),0
same,"Influenza like illness, Severe: events (E)",6 mg (N = 469),0
same,Influenza like illness: events (E),6 mg (N = 469),1
same,Influenza like illness: events E,6 mg (N = 469),1
same,Influenza like illness: patients %,6 mg (N = 469),(0.2) %
same,Influenza like illness: patients (%),6 mg (N = 469),(0.2) %
same,Influenza like illness: patients N,6 mg (N = 469),1
same,Influenza: events E,6 mg (N = 469),7
same,Influenza: patients %,6 mg (N = 469),(1.5) %
same,Influenza: patients N,6 mg (N = 469),7
same,"Injury, poisoning and procedural complications (SOC): events E",6 mg (N = 469),9
same,"Nausea, Mild: events (E)",6 mg (N = 469),3
same,"Nausea, Mild: patients (%)",6 mg (N = 469),(0.6) %
same,"Nausea, Moderate: events (E)",6 mg (N = 469),2
same,"Nausea, Moderate: patients (%)",6 mg (N = 469),(0.4) %
same,"SAE Musculoskeletal and connective tissue disorders, E events",6 mg (N = 469),0
same,"SAE Musculoskeletal and connective tissue disorders, N patients",6 mg (N = 469),0
same,"SAE Musculoskeletal and connective tissue disorders, No Reasonable Possibility, E events",6 mg (N = 469),0
same,"SAE Musculoskeletal and connective tissue disorders, No Reasonable Possibility, N patients",6 mg (N = 469),0
same,"SAE Musculoskeletal and connective tissue disorders, Reasonable Possibility, E events",6 mg (N = 469),0
same,"SAE Musculoskeletal and connective tissue disorders, Reasonable Possibility, N patients",6 mg (N = 469),0
same,"Influenza, Mild: events E",Active Combined,6
same,"Influenza, Mild: patients %",Active Combined,(0.6) %
same,"Influenza, Mild: patients N",Active Combined,6
same,"Influenza, Moderate: events E",Active Combined,3
same,"Influenza, Moderate: patients %",Active Combined,(0.3) %
same,"Influenza, Moderate: patients N",Active Combined,3
same,"Influenza, Severe: events E",Active Combined,0
same,"Influenza, Severe: patients N",Active Combined,0
same,Influenza: events E,Active Combined,9
same,Influenza: patients %,Active Combined,(1.0) %
same,Influenza: patients N,Active Combined,9
same,"Skeletal injury, Mild: events E",Active Combined,0
same,"Skeletal injury, Mild: patients N",Active Combined,0
same,"Skeletal injury, Moderate: events E",Active Combined,0
same,"Skeletal injury, Moderate: patients N",Active Combined,0
same,"Skeletal injury, Severe: events E",Active Combined,1
same,"Skeletal injury, Severe: patients %",Active Combined,(0.1) %
same,"Skeletal injury, Severe: patients N",Active Combined,1
same,Skeletal injury: events E,Active Combined,1
same,Skeletal injury: patients %,Active Combined,(0.1) %
same,Skeletal injury: patients N,Active Combined,1
same,Infections and infestations (SOC): events E,Active Combined (N = 936),89
same,Infections and infestations (SOC): patients %,Active Combined (N = 936),(8.2) %
same,Infections and infestations (SOC): patients N,Active Combined (N = 936),77
same,"Influenza like illness, Mild: events (E)",Active Combined (N = 936),1
same,"Influenza like illness, Mild: patients (%)",Active Combined (N = 936),(0.1) %
same,"Influenza like illness, Moderate: events (E)",Active Combined (N = 936),0
same,"Influenza like illness, Severe: events (E)",Active Combined (N = 936),0
same,Influenza like illness: events (E),Active Combined (N = 936),1
